Data as given in patent US7906616B2, “Truncated DANCE, DANCE complex and method of using these” (Kansai Medical University, priority 2004, dated 2011).

Key:
[1] = target: T1, human DANCE (Homo sapiens, UniProt Q9UBX5); assay: In vitro binding assay, FLAG-tagged DANCE constructs with Myc-tagged DANCE; details: protein solutions from 293T cells mixed on ice 1 hour, anti-FLAG precipitation, anti-Myc detection
T1 construct: Myc; expressed in transfected cells; host or cells: 293T cells; culture supernatant mixed with cell extract
T1 sequence (Q9UBX5 24-448): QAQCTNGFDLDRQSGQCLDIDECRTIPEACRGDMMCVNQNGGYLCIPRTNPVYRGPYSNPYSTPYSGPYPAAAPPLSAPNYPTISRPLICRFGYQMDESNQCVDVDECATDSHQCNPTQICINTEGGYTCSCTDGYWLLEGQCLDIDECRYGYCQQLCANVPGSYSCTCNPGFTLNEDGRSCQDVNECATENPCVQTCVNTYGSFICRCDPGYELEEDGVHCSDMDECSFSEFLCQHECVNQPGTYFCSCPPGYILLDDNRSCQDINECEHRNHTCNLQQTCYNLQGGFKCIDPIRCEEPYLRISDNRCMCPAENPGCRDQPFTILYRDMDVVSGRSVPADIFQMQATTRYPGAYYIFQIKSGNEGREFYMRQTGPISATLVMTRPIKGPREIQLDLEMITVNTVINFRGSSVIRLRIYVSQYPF
Experimental: (§1) These were performed by methods described in “Molecular Cloning, 3rd Ed.”.
(§2) A human DANCE construct with FLAG tag (FIG. 8), a human DANCE construct with Myc tag, and a human LTBP2 construct were separately transfected to 293T cells. After cultivation in serum-free medium for 48 hours, each culture supernatant and cell extract were mixed, and this was used as the protein solution. A protein solution from the DANCE construct with FLAG tag and a protein solution from DANCE or LTBP2 with Myc tag were mixed on ice for 1 hour, and precipitated with anti-FLAG antibody, and the resulting precipitate was developed by SDS-PAGE, and detected using anti-Myc antibody or anti-FLAG antibody.

[2] = target: T2, human LTBP2 (Homo sapiens, UniProt Q14767); assay: In vitro binding assay, FLAG-tagged DANCE constructs with Myc-tagged LTBP2; details: protein solutions from 293T cells mixed on ice 1 hour, anti-FLAG precipitation, anti-Myc detection
T2 construct: The portion from the 36th amino acid to the stop codon of human LTBP2; expressed in transfected cells; host or cells: 293T cells; culture supernatant mixed with cell extract
T2 sequence (Q14767 36-1821): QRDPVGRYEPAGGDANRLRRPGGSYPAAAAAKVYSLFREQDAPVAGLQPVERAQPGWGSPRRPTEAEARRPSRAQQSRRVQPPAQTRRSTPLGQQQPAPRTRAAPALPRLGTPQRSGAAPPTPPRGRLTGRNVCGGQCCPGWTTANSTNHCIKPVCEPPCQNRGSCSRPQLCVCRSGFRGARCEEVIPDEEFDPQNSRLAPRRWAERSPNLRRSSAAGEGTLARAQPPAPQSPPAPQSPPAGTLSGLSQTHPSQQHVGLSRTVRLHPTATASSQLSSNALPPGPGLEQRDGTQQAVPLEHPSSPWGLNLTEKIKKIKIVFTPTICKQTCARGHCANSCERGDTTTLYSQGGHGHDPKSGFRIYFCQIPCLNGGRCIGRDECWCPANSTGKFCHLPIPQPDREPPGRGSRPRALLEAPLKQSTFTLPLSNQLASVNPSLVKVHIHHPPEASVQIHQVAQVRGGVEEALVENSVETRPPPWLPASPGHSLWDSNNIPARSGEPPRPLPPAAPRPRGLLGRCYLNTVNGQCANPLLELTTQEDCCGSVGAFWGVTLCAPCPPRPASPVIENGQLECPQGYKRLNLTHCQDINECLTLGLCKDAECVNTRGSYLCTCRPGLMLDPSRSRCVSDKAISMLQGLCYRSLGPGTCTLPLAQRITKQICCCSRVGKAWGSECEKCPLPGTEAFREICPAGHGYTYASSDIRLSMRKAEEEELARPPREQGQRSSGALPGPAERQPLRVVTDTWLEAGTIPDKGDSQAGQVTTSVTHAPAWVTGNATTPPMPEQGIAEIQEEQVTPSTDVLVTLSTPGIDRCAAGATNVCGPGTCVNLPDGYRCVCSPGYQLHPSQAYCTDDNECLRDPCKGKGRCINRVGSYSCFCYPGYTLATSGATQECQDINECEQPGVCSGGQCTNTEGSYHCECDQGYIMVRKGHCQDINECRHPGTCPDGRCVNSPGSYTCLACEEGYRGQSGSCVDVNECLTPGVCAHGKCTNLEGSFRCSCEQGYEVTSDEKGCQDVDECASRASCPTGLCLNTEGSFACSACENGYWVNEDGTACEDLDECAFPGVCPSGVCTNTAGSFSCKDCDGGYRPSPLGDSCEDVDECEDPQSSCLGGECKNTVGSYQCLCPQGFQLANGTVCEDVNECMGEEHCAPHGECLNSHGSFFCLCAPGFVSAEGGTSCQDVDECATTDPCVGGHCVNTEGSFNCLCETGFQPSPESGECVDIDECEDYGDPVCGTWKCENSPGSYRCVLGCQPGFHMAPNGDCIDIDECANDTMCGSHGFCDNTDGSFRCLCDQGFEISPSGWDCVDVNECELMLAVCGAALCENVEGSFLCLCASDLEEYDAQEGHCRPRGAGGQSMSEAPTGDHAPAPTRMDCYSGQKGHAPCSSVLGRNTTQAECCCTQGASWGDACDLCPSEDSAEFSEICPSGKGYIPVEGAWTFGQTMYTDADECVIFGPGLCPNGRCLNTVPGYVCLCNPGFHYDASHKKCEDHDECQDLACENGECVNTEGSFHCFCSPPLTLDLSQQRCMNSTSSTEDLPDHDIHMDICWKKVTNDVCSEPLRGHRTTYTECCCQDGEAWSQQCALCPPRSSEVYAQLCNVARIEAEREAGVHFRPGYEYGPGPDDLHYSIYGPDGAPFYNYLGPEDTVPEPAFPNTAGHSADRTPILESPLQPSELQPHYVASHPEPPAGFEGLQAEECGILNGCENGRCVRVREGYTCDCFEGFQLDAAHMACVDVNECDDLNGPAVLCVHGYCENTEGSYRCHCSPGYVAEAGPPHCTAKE
Experimental: as §1, §2

[3] = tested on: vascular endothelial cells; assay: Vascular endothelial cell adhesion assay; assay type: cell-based
Description: Full-length DANCE promotes the adhesion and extension of vascular endothelial cells via cell surface integrin. The present inventor has reported to date that full-length DANCE can serve as a ligand for the integrins αvβ3, αvβ5, and α9β1. Since the domain serving as the ligand is considered to be around the RGD motif of the amino-terminal domain of DANCE, each recombinant protein of a DANCE mutant wherein RGD was replaced with RGE for one-amino-acid substitution (RGE DANCE), and amino-terminal cleaved form of DANCE (ΔND DANCE) were purified, and these, along with full-length DANCE, were subjected to vascular endothelial cell adhesion assay (FIG. 13).

[4] = tested on: human skin fibroblasts; assay: Formation of elastic fibers in cultured human skin fibroblasts; assay type: cell-based; details: protein added to serum-free medium at 4 μg/ml, cultured for 2 weeks
Experimental: Human fibroblasts were kindly supplied by the Department of Plastic Surgery, Kyoto University Hospital. A cover glass was placed on the bottom of a 24-well plate, on which human fibroblasts were seeded at 7.5×10^4 cells per well, and cultured in a DMEM medium supplemented with 10% FBS at 37° C. in the presence of 5% CO2. After the plate washed with PBS on Day 3, the medium was exchanged with a DMEM/F12 medium not supplemented with FBS, and purified DANCE protein, cleaved form of DANCE protein 4 μg/ml, or FBS was added. Cultivation was continued at 37° C. in the presence of 5% CO2, and the cells were fixed and immunologically stained on Day 14.
On Day 14 of cultivation, the cells were washed with 1 ml of PBS three times, after which they were fixed with 100% methanol at −20° C. for 30 minutes. After washing with PBS, the cells were subjected to blocking with a PBS containing 2% BSA at room temperature for 30 minutes, after which the cells were incubated with the polyclonal anti-elastin antibody (dilution rate 1/100) and the monoclonal anti-FLAG antibody (dilution rate 1/100) at room temperature for at least 1 hour. The cells were washed with PBS and further incubated with the anti-rabbit Alexa Fluor 488 antibody (dilution rate 1/100) and the anti-mouse Alexa Fluor 546 antibody (dilution rate 1/100) at room temperature for 1 hour. After washing with PBS, the cells were fixed with 4% para-formaldehyde at room temperature for 10 minutes and again washed with PBS, after which the sample was mounted onto a glass slide using a DAPI-containing Vectashield. Examination was performed using a confocal microscope.
Human skin fibroblasts were seeded to reach confluency; the medium was replaced with serum-free medium or a medium containing 10% fetal calf serum; the cells were cultured for 2 weeks; the formation of elastic fibers was analyzed by immunostaining with anti-elastin antibody.

B1: ΔND DANCE: amino-terminal cleaved form of DANCE; 78th to 448th amino acids of SEQ ID NO:2 (SEQ ID NO:8) (protein, listed as Homo sapiens)
chain: GPYSNPYSTPYSGPYPAAAPPLSAPNYPTISRPLICRFGYQMDESNQCVDVDECATDSHQCNPTQICINTEGGYTCSCTDGYWLLEGQCLDIDECRYGYCQQLCANVPGSYSCTCNPGFTLNEDGRSCQDVNECATENPCVQTCVNTYGSFICRCDPGYELEEDGVHCSDMDECSFSEFLCQHECVNQPGTYFCSCPPGYILLDDNRSCQDINECEHRNHTCNLQQTCYNLQGGFKCIDPIRCEEPYLRISDNRCMCPAENPGCRDQPFTILYRDMDVVSGRSVPADIFQMQATTRYPGAYYIFQIKSGNEGREFYMRQTGPISATLVMTRPIKGPREIQLDLEMITVNTVINFRGSSVIRLRIYVSQYPF
binding of DANCE to each other [1]: no longer binds to each other
binding of DANCE to LTBP2 [2]: stronger binding with LTBP2 than full-length DANCE
binding to cell surface integrin ([3]; discussion statement): no longer binds to cell surface integrin
cell adhesion activity ([3]; purified recombinant protein used for coating): absolutely no cell adhesion activity
formation of elastic fibers (anti-elastin immunostaining) [4]: the formation of elastic fibers was very little
